Numbering of substitutions follows the chain as printed. Each block holds one binder with its values, some of them ahead of it.
Tests used:
[1] = biological target: T1, human SIRPA Fc fusion antigen (human, UniProt P78324 31-373); experiment: ForteBio Fab monovalent
T1 construct: heterologous signal peptide; not shown: human IgG1 Fc

Human SIRPA D1 Fc = biological target: T2, Human SIRPA D1 Fc (human, UniProt P78324 32-137); experiment: ForteBio IgG avid;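 note: antibody IgG captured on AHQ biosensors, then 100 nM Fc-fused SIRP antigen applied for 3 min, followed by 3 min buffer dissociation, kinetics fitted to a 1:1 model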
T2 construct: not shown: human IgG1 Fc

Mouse SIRPA D1 Fc = biological target: T3, Mouse SIRPA D1 Fc (mouse, UniProt P97797 32-150, limits assumed); experiment: ForteBio IgG avid;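 note: antibody IgG captured on AHQ biosensors, then 100 nM Fc-fused SIRP antigen applied for 3 min, followed by 3 min buffer dissociation, kinetics fitted to a 1:1 model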
T3 sequence: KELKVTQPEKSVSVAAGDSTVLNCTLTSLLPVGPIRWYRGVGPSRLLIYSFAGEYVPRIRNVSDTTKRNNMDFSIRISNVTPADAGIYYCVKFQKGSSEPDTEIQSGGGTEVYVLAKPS

Human SIRPb D1 Fc = Human SIRPb D1 Fc (human, UniProt O00241 30-148, limits assumed); experiment: ForteBio IgG avid;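 note: antibody IgG captured on AHQ biosensors, then 100 nM Fc-fused SIRP antigen applied for 3 min, followed by 3 min buffer dissociation, kinetics fitted to a 1:1 model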
[2] = biological target: T4, mouse SIRPA overexpressed on CHO cells (mouse, UniProt P97797 32-513); experiment: flow, CHO-muSIRPA;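 for relative MFI: antibody binding measured by flow cytometry: cells stained with 1 ug/ml test antibody for 1 h on ice, detected with PE-labelled secondary antibody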
T4 construct: also called CHO-muSIRPA
T4 sequence: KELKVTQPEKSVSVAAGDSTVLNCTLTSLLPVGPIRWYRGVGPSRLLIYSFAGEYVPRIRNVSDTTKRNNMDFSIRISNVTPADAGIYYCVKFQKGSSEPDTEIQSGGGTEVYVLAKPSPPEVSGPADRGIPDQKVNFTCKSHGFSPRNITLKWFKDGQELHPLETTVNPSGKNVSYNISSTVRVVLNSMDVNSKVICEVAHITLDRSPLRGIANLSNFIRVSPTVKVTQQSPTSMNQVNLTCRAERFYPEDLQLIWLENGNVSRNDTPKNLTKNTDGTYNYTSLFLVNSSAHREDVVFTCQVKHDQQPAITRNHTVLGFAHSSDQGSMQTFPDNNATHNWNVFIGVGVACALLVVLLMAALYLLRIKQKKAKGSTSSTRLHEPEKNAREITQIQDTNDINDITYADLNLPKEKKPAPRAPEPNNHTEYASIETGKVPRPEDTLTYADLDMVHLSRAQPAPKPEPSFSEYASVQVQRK

[3] = biological target: T1, human SIRPA Fc fusion antigen; experiment: ForteBio IgG avid;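 note: ForteBio sensor-based avid binding of anti-SIRPA antibodies in IgG format, with the binding partner in solution at 100 nM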
[4] = biological target: T5, human SIRPβ1 Fc fusion antigen (human, UniProt O00241 30-371); experiment: ForteBio IgG avid;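 note: ForteBio sensor-based avid binding of anti-SIRPA antibodies in IgG format, with the binding partner in solution at 100 nM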
T5 construct: not shown: human IgG1 Fc

[5] = biological target: T6, human SIRPA overexpressed on CHO cells (human, UniProt P78324 31-504); experiment: flow, CHO-huSIRPA;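 note: Anti-SIRPA antibodies applied at 1 µg/mL for 1 h on ice, binding read by flow cytometry using a PE-labelled secondary antibody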
T6 construct: also called CHO-huSIRPA
Procedure: Initial characterization of anti-SIRPA antibodies of the present disclosure involved determining their ability to bind cell lines overexpressing human or mouse SIRPA. Cells were harvested, plated at 10⁶/ml in a 96 well plate, washed, and incubated in 100 ul PBS containing 1 ug/ml Mab for 1 hour in ice. Cells were then washed twice and incubated in 100 ul PBS containing 5 ug/ml PE-conjugated secondary antibody for 30 minutes in ice. Cells were washed twice in cold PBS and acquired on a BD FACS Canto. Data analysis and calculation of mean fluorescence intensity (MFI) values or % positive cells was performed with FlowJo® (TreeStar) software version 10.0.7.

[6] = biological target: human SIRPA-DAP12 chimera on BWZ NFAT-luciferase reporter cells (human, UniProt O43914 62-113, limits assumed); experiment: cell-based or functional assay
[7] = biological target: T4, mouse SIRPA overexpressed on CHO cells; experiment: flow, CHO-muSIRPA; remark: listed apart in the source;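 for relative MFI: antibody binding measured by flow cytometry: cells stained with 1 ug/ml test antibody for 1 h on ice, detected with PE-labelled secondary antibody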
[8] = biological target: T7, biotinylated human SIRPA (monomer) (human, UniProt P78324 31-373, limits assumed, biotinylated); experiment: MSD-SET, Fab, equilibrium;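 note: solution equilibrium titration, free antigen captured on antibody-coated MSD plates and detected by electrochemiluminescence with labeled streptavidin, percent free antigen versus titrated antibody fit to quadratic model for KD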
T7 construct: monomer made by IdeS cleavage of a SIRPA Fc fusion; also called recombinant human SIRPA
Procedure: Antibodies (20 nM in PBS) were coated onto standard bind MSD-ECL plates overnight at 4° C. or at room temperature for 30 min. Plates were then blocked with 1% BSA for 30 min with shaking at 700 rpm, followed by three washes with wash buffer (PBSF+0.05% Tween 20). SET samples were applied and incubated on the plates for 150s with shaking at 700 rpm followed by one wash. Antigen captured on a plate was detected with 250 ng/ml sulfotag-labeled streptavidin in PBSF by incubation on the plate for 3 min. The plates were washed three times with wash buffer and then read on the MSD Sector Imager 2400 instrument using 1× Read Buffer T with surfactant. The percent free antigen was plotted as a function of titrated antibody in Prism and fit to a quadratic equation to extract the KD. To improve throughput, liquid handling robots were used throughout MSD-SET experiments, including SET sample preparation.

[9] = biological target: human SIRPA R54A with C-terminal V5 tag on HEK-293T cells (human, UniProt P78324 31-504); experiment: flow cytometry, Fab on HEK-293T cells with the mutant
Procedure: (§1) Epitope mapping of anti-SIRPA antibodies was performed using an alanine-scanning library created by shotgun mutagenesis of the human SIRPA cDNA sequence.
(§2) Antibodies were digested to generate Fabs, after which cells were incubated with Fabs diluted in 10% normal goat serum (NGS) (Sigma-Aldrich, St. Louis, MO). Prior to library screening, primary Fab concentrations were determined using an independent immunofluorescence titration curve against cells expressing wild type SIRPA to ensure that signals were within the linear range of detection. Fabs were detected using 7.5 μg/ml AlexaFluor488-conjugated secondary antibody (Jackson ImmunoResearch Laboratories, Westgrove, PA) in 10% NGS. Cells were washed twice with PBS and resuspended in Cellstripper (Cellgro, Manassas, VA) with 0.1% BSA (Sigma-Aldrich, St. Louis, MO). In some cases, higher stringency conditions were used, including increased pH, increased temperature, and increased dissociation time. Mean cellular fluorescence was detected using the Intellicyt high throughput flow cytometer (HTFC, Intellicyt, Albuquerque, NM). Fab reactivities against each mutant clone were calculated relative to wild-type SIRPA protein reactivity by subtracting the signal from mock-transfected controls, and normalizing to the signal from wild-type SIRPA transfected controls.

[10] = biological target: human SIRPA D40A with C-terminal V5 tag on HEK-293T cells (human, UniProt P78324 31-504); experiment: as above
Procedure: as §1, §2

[11] = biological target: human SIRPA W68A with C-terminal V5 tag on HEK-293T cells (human, UniProt P78324 31-504); experiment: as above
Procedure: as §1, §2

[12] = biological target: T1, human SIRPA Fc fusion antigen; experiment: ForteBio Fab monovalent; remark: listed apart in the source
Procedure: (§3) Briefly, ForteBio affinity measurements were performed by loading immunoglobulins (IgGs) on-line onto AHQ sensors. Sensors were equilibrated off-line in assay buffer for 30 min and then monitored on-line for 60 seconds for baseline establishment. For avid binding measurement, sensors with loaded IgGs were exposed to 100 nM antigen (human SIRPA or SIRPβ1 Fc fusion) for 3 min, afterwards they were transferred to assay buffer for 3 min for off-rate measurement. […] Monovalent binding measurements were obtained by loading human SIRPA Fc fusion antigens to AHQ sensor and followed by exposure to 100 nM anti-SIRPA antibody Fab.
(§4) Additional monovalent measurements were made by loading biotinylated human SIRPA monomer to SA sensor followed by exposure to 100 nM Fab in solution. Kinetics data were fit using a 1:1 binding model in the data analysis software provided by ForteBio.

[13] = biological target: T5, human SIRPβ1 Fc fusion antigen; experiment: ForteBio Fab monovalent
Procedure: as §3, §4

T5 sequence (O00241 30-371 limits assumed): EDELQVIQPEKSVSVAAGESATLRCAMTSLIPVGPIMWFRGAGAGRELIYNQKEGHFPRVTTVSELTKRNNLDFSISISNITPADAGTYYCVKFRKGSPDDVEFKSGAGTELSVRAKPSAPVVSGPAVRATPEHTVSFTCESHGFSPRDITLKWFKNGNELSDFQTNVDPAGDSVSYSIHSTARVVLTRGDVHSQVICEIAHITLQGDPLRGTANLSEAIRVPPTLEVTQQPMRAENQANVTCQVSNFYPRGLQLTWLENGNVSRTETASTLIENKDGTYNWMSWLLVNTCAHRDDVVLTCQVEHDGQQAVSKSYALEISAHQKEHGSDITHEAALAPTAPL
Sequence of Human SIRPb D1 Fc (O00241 30-148 limits assumed): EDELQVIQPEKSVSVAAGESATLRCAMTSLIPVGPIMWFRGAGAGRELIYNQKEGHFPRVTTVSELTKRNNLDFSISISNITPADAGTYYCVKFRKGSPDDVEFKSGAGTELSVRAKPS

Kd [1]: 100 nM
B1: SA-39 Fab (Fab, V domains shown)
VH: QVQLVQSGAEVKKPGASVKVSCKASGYTFTSYYMVWVRQAPGQGLEWMGIINPSGGSTSYAQKFQGRVTMTRDTSTSTVYMELSSLRSEDTAVYYCAREGGYGYRAYPYGMDVWGQGTTVTVSS
VL: DIQMTQSPSSLSASVGDRVTITCQASQDISNSLNWYQQKPGKAPKLLIYDASNLETGVPSRFSGSRSGTDFTFTISSLQPEDIATYYCQQVIILPLTFGGGTKVEIK
notes: papain Fab

Kd [1]: 486 nM
B2: SA-28 Fab (Fab, V domains shown)
VH: QVQLQESGPGLVKPSQTLSLTCTVSGGSISSGGYYWSWIRQHPGKGLEWIGNIYYSGSTYYNPSLKSRVTISVDTSKNQFSLKLSSVTAADTAVYYCARDSDTSWGGFDYWGQGTLVTVSS
VL: EIVLTQSPGTLSLSPGERATLSCRASQSVRSSYLAWYQQKPGQAPRLLIYGASSRATGIPDRFSGSGSGTDFTLTISRLEPEDFAVYYCQQAGVSPYTFGGGTKVEIK
notes: papain Fab

Kd (Human SIRPA D1 Fc): 2.81 nM | binding result (Mouse SIRPA D1 Fc): no binding (tested: 100 nM) | binding result (Human SIRPb D1 Fc): no binding (tested: 100 nM) | relative MFI [2]: 0.583 fold over background | Kd [3]: 2.04 nM | binding result [4]: no binding (tested: 100 nM) | relative MFI [5]: 128 fold over background | luminescence of BWZ-huSIRPA reporter cells with SA-56 and plate-bound CD47 [6]: ~10 fold over background | binding result [7]: no binding (tested: 1 ug/ml)
B3: SA-56 (antibody, V domains shown)
VH: EVQLVESGGGLVKPGGSLRLSCAASGFTFSSYSMNWVRQAPGKGLEWVSSISSSSSYIYYADSVKGRFTISRDNAKNSLYLQMNSLRAEDTAVYYCARGVETYSGPNWFDPWGQGTLVTVSS
VL: DIQMTQSPSSVSASVGDRVTITCRASQGISSWLAWYQQKPGKAPKLLIYAASSLQSGVPSRFSGSGSGTDFTLTISSLQPEDFATYYCQQAIYFPITFGGGTKVEIK
notes: IgG; also called SA-56 (parental)

Kd [8]: 0.88 nM | Binding Reactivity (% WT), mean [9]: 2.9 % WT | Binding Reactivity (% WT), mean [10]: 0.2 % WT | Binding Reactivity (% WT), mean [11]: 25.6 % WT | Kd [12]: 3.43 nM | binding result [13]: no binding (tested: 100 nM)
B4: SA-56-94 Fab (Fab, V domains shown)
VH: EVQLVESGGGVVQPGRSLRLSCAASGFTFSYYGMSWVRQAPGKGLEWVASIWVDGSNKYYADSVKGRFTISRDNSKNTLYLQMNSLRAEDTAVYYCAVGTETYSGPNWFDPWGQGTLVTVSS
VL: B3 VL
notes: papain Fab; also called SA-94

Kd [8]: 0.17 nM | Binding Reactivity (% WT), mean [9]: 1.7 % WT | Binding Reactivity (% WT), mean [10]: 0.4 % WT | Binding Reactivity (% WT), mean [11]: 19.3 % WT | Kd [12]: 1.11 nM | binding result [13]: no binding (tested: 100 nM)
B5: SA-56-90 Fab (Fab, V domains shown)
VH: B4 VH with E1Q, F27S, Y31H, N84D, V98R, T100V
VL: B3 VL
notes: papain Fab; also called SA-90

Kd [12]: 206 nM | binding result [13]: no binding (tested: 100 nM) | Kd [1]: 301 nM
B6: SA-56 Fab (Fab, V domains shown)
VH: B3 VH
VL: B3 VL
notes: papain Fab; also called SA-56 (parental)

Kd [1]: 257 nM
B7: SA-16 Fab (Fab, V domains shown)
VH: QVQLQQWGAGLLKPSETLSLTCAVYGGSFSGYYWSWIRQPPGKGLEWIGEIDHSGSTNYNPSLKSRVTISVDTSKNQFSLKLSSVTAADTAVYYCARDLGPPGPHLDVWGQGTMVTVSS
VL: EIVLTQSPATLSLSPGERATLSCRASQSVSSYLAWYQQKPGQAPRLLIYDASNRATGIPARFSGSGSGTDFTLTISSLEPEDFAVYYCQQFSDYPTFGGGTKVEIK
notes: papain Fab

Kd [1]: 281 nM
B8: SA-38 Fab (Fab, V domains shown)
VH: QVQLQESGPGLVKPSQTLSLTCTVSGGSISSGGYYWSWIRQHPGKGLEWIGSIYYSGSTYYNPSLKSRVTISVDTSKNQFSLKLSSVTAADTAVYYCAREGAYSLYVNWFDPWGQGTLVTVSS
VL: EIVMTQSPATLSVSPGERATLSCRASQSVSSSLAWYQQKPGQAPRLLIFGASTRATGIPARFSGSGSGTEFTLTISSLQSEDFAVYYCQQYDNYPPITFGGGTKVEIK
notes: papain Fab

Kd [1]: 497 nM
B9: SA-35 Fab (Fab, V domains shown)
VH: QVQLVQSGAEVKKPGASVKVSCKASGYTFTSYYMHWVRQAPGQGLEWMGIINPSGGSTSYAQKFQGRVTMTRDTSTSTVYMELSSLRSEDTAVYYCAREAGYDIKGFDYWGQGTLVTVSS
VL: DIQMTQSPSTLSASVGDRVTITCRASQSISSWLAWYQQKPGKAPKLLIYKASSLESGVPSRFSGSGSGTEFTLTISSLQPDDFATYYCQQYGSFPLTFGGGTKVEIK

Kd [1]: 2070 nM
B10: SA-36 Fab (Fab, V domains shown)
VH: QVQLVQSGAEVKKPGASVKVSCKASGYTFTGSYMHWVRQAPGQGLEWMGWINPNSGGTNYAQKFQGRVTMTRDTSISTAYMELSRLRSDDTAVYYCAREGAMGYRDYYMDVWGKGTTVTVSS
VL: EIVLTQSPATLSLSPGERATITCQASQDISSYLAWYQQKPGQAPRLLIYDASNRATGIPARFSGSGSGTDFTLTISSLEPEDFAVYYCQQRTHYPWTFGGGTKVEIK
notes: papain Fab

— patent US20240270866A1 (Alector, published 2024)
